The text below walks through data of paper PMC11978755.

Test [1] concerns the target Recombinant hemagglutinin-esterase-fusion (HEF) ectodomain of influenza C virus C/Johannesburg/1/1966 (influenza C virus (C/Johannesburg/1/1966)) (UniProt P07975). Description: BLI. On the technique in general: In BLI a coated tip is dipped into the sample, and binding shifts an interference pattern.
Test [2] has as its target Recombinant hemagglutinin-esterase-fusion (HEF) ectodomain of influenza D virus D/swine/Oklahoma/1334/2011 (influenza D virus (D/swine/Oklahoma/1334/2011)). In words: BLI.

Bounds are passed on as bounds.

Chain of UniProt P07975 (P07975 15-630): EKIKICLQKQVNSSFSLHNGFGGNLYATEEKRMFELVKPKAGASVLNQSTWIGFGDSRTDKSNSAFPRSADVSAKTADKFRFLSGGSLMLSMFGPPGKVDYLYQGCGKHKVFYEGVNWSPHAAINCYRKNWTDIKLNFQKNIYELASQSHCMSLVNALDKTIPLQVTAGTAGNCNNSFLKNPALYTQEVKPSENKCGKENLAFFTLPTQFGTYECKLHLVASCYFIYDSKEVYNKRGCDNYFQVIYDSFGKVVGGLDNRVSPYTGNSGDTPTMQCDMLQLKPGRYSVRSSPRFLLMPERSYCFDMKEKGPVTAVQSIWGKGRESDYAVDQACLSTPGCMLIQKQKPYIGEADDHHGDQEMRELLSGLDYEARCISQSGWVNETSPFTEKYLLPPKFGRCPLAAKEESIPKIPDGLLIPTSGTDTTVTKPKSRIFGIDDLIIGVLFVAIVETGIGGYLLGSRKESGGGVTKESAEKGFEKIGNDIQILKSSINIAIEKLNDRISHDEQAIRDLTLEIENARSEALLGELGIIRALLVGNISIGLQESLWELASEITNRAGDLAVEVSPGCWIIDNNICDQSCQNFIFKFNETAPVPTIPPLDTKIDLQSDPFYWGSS

As a reminder, the Kd is the equilibrium constant for the complex coming apart. “CR9114 IgG (human IgG1, wild type) (antibody)”: the Kd in test [1] and in test [2] was above 100 µM each time.

On to “CR9114 IgM (pentameric, ten antigen binding sites) (antibody)”, for which the Kd in test [1] and in test [2] was above 100 µM throughout.
